{
  "source": "the nanobody polyreactivity screen of Harvey et al. (2022)",
  "data": [
    {"assay": "yeast display, Sf9 membrane polyspecificity reagent, FACS + sequencing; frameworks hold sequencing errors", "how_it_was_run": "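Galactose induction of a Saccharomyces cerevisiae BJ5465 synthetic nanobody display library ran 36–48 hours. The cells were then stained for 1 hour at 4 °C with 10% biotinylated, detergent-solubilized Sf9 membrane reagent, pulled down on streptavidin microbeads and FACS-sorted into low and high (top ~1%) gates on expression and reagent-binding fluorescence. Labels for polyreactivity follow the gate of origin.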", "values": [
      {"sequence": "QVQLVESGGGLVQAGGSLRLSCAASGFIFVTYAMGWYRQAPGKERELVAAITNSGGTTYYADSVKGRFTISRDNAKNTVYLQMISLKPEDSAVYYCNKPYGAETAHREFDYWGQGTQVTVSS", "polyreactivity (PSR sort gate)": "low polyreactivity"},
      {"sequence": "QVQLVESGGGLVQAGGSLRLSCAASGFIFVTYAMGWYRQAPGKETELVAAINNSGGTTYYADSVKGRFTISRDNAKNTVYLQMNSLKPEDTAVYFCNKRYGAETAHREFDYWGQGTQVTVSS", "polyreactivity (PSR sort gate)": "low polyreactivity"},
      {"sequence": "QVQLVESGGGLVQAGGSLRLSCAASGFIFVVYAMGWYRQAPGTERELVATISSGGGTYYADSVKGRFTISRDNAKITVYLQMNSLKPEDTAVYYCAARRRRLYHFGGNNYWGQGTLVTVSS", "polyreactivity (PSR sort gate)": "high polyreactivity"},
      {"sequence": "QVQLVESGGGLVQAGGSLRLSCAASGFIFVWYAMGWYRQAPGKERELVAGITASGGSTYYADSVKGRFTISRDNAKNTVYLQMNSLKPEDTAVYYCAADAWPLWLKLTPTSGGYWGQGTQVTVSS", "polyreactivity (PSR sort gate)": "low polyreactivity"},
      {"sequence": "QVQLVESGGGLVQAGGSLRLSCAASGFIFVYNDMGWYRPAPGKERELVAAISTSGGSTYYADSVKGRFTISRDNAKNTVYLQMNSLKPEDTAVYYCAAGPSYYPFFWPDFEYWGQGTQVTVSS", "polyreactivity (PSR sort gate)": "high polyreactivity"},
      {"sequence": "QVQLVESGGGLVQAGGSLRLSCAASGFIFVYYAMGWYRQAPGKERELVAAITSDVNTYYADSVKGRFSISRDNAKNTVYLHMNSLKPEDTAVDYCNADADDYRDYQDYDYWGQGSQVTVSS", "polyreactivity (PSR sort gate)": "low polyreactivity"},
      {"sequence": "QVQLVESGGGLVQAGGSLRLSCAASGFIFWDYAMGLYRQAPGKERELVAAISDSGGDTYYADSVKGRFTISRDNAKNTVYFQINSLKPEDTAVYYCSADVELWVFRGQQYDYWGQGTQVTVSS", "polyreactivity (PSR sort gate)": "low polyreactivity"},
      {"sequence": "QVQLVESGGGLVQAGGSLRLSCAASGFIFWDYAMGWYRQAPGKEREFVATISLSVGSTYYADSVKGRFTISRDNAKNTVYLQMNSLKPEDTAVYYCAAVTWGEGFDYWGQGTQVTVSS", "polyreactivity (PSR sort gate)": "low polyreactivity"},
      {"sequence": "QVQLVESGGGLVQAGGSLRLSCAASGFIFWLNAMGWYRQAPGKERELVAASSIGGRTNYADSVKGRFTISRDNAKNTVYLQMNSLKPDDTAVYYCNKDYRSVYKGRGFDYCGQGTQVTVSS", "polyreactivity (PSR sort gate)": "low polyreactivity"},
      {"sequence": "QVQLVESGGGLVQAGGSLRLSCAASGFIFWPNAMGWYRQPPGKERELVAAISYSGGSTYYADSVKGRFTISRDNAKNTVYLQMNSLKPEDTAVYYCAKLPYRRVDYGYWGQGTQVTVSS", "polyreactivity (PSR sort gate)": "high polyreactivity"},
      {"sequence": "QVQLVESGGGLVQAGGSLRLSCAASGFIFWQYAMGWYRQAPGKERELVAAITSRGGSTYYADSVKGRFTISRDNAKNTVYLKMNSLKPEDTAVYYCARLYPRHLNGDYWGQGTQVTVSS", "polyreactivity (PSR sort gate)": "high polyreactivity"},
      {"sequence": "QVQLVESGGGLVQAGGSLRLSCAASGFIFWQYTLGWYRQAPGKERELVAAINGGSSTYYADSVKGRFTISRDNAKNTVYVQKNSRKPEDTAVYYCAADRYLYHDRYEYDYWGQGTQVTVSS", "polyreactivity (PSR sort gate)": "high polyreactivity"},
      {"sequence": "QVQLVESGGGLVQAGGSLRLSCAASGFIFWRNAMGWYSQAPGQERELVAAITSGDRTNYADSVKGRFTISRDNAKNTVYLQMNSLKPEDTAVYYCNARRYRLVSYDYWGQGTQVTVSS", "polyreactivity (PSR sort gate)": "low polyreactivity"},
      {"sequence": "QVQLVESGGGLVQAGGSLRLSCAASGFIFWRNTMGWYRQAPGKERELVAVITRGGSTYYADSVKGRFTISRDNAKNTVYLQMNSLKPEDTAVYYCAARNDYYKTFSGYDYWGQGTQVTVSS", "polyreactivity (PSR sort gate)": "low polyreactivity"},
      {"sequence": "QVQLVESGGGLVQAGGSLRLSCAASGFIFWSYAMGWYRQAPGKERELVAAIDLTGGSTYYADSVKGRFTISRDNAKNTVYLQMNSLKPEDTAVYYCNADGDTYAFTNSDSGFDYWGQGTQVSVSS", "polyreactivity (PSR sort gate)": "low polyreactivity"},
      {"sequence": "QVQLVESGGGLVQAGGSLRLSCAASGFIFWTYAMGWYRQAPGKERELVARISWSGGSTYYADSVKGRFTISRDNAKNTVYLQMNSLKPEDTAVYYCARLATLYESIEYDYWGQGTQVTVSS", "polyreactivity (PSR sort gate)": "low polyreactivity"},
      {"sequence": "QVQLVESGGGLVQAGGSLRLSCAASGFIFWYNAMGWYRQAPGKERELVASISGSGGSTYYADSVKGRFTISRDNAKNTVYLQMNSLKPEDTAVYYCAVYFFSFWGQGTQVTVSS", "polyreactivity (PSR sort gate)": "low polyreactivity"},
      {"sequence": "QVQLVESGGGLVQAGGSLRLSCAASGFIFWYYAMGWSRQAPGKERELVAAISYGGGSTYYADSVKGRFTISRDNAKNTVYLQMNSLKPEDTAVYYCAAAPRWKASRLYYWGQGTQVTVSS", "polyreactivity (PSR sort gate)": "high polyreactivity"},
      {"sequence": "QVQLVESGGGLVQAGGSLRLSCAASGFIFWYYAMGWYRHAPGKERELVAVISSGSSTHYADSVKGRFTISRDNAKNTVYLQMNSLKPEDTAVDYCAARIRTRYFTGYYYWGQGTQVSVSS", "polyreactivity (PSR sort gate)": "high polyreactivity"},
      {"sequence": "QVQLVESGGGLVQAGGSLRLSCAASGFIFWYYAMGWYRQAPGKERELVAAINSSGGSTYYADSVKGRFTISRDNAKNTVSLQMNSLKPEDTAVYYCAARAYQRGNYWGQGTQVTVSS", "polyreactivity (PSR sort gate)": "high polyreactivity"},
      {"sequence": "QVQLVESGGGLVQAGGSLRLSCAASGFIFYAYVMGWYRQAPGKERELVAAISRNGGSTYYADSVKGRFTISRDNAKNTVYLQMKSLKPEDTAVYYCAALSYYRYSQEDDYWGQGTQVTVSS", "polyreactivity (PSR sort gate)": "high polyreactivity"},
      {"sequence": "QVQLVESGGGLVQAGGSLRLSCAASGFIFYDYAMGWYRQAPGKERELVAAISSGGSTNYADSVKGRFTISRDNAKNTVYLQMNSLIPEDTEVYYCAADDRSYATWKRDYDYWGQGTQVTVSS", "polyreactivity (PSR sort gate)": "low polyreactivity"},
      {"sequence": "QVQLVESGGGLVQAGGSLRLSCAASGFIFYDYAMGWYRQAPGKERELVAAITVDGGTTYYADSVKGRFTISRDNAKNTVYLQMNSLKPEDTAVYYCAADTYYGFDSNYEYCGQGTQVTVSS", "polyreactivity (PSR sort gate)": "low polyreactivity"},
      {"sequence": "QVQLVESGGGLVQAGGSLRLSCAASGFIFYDYAMGWYRQATGKERELVAGITDSGGSTSYADSVKGRFTISRDNAKNTDYLQMNSLKPEDTAVYYCAADNYVRAGINYDYWGQGTQVTVSS", "polyreactivity (PSR sort gate)": "low polyreactivity"},
      {"sequence": "QVQLVESGGGLVQAGGSLRLSCAASGFIFYEYAMGWYRQATGKERELVAAITYSAGSTYYADSVKGRFTISRDNAKNTVYLQMNSLKPEDTAVYFCAKVDSEYRQVIQQEDDYWGQGTQVTVSS", "polyreactivity (PSR sort gate)": "low polyreactivity"},
      {"sequence": "QVQLVESGGGLVQAGGSLRLSCAASGFIFYFYAMGWYRQATGKEMELVAAISDGVSTYYADSVKGRFTISRDNAKNTVYLQMNCLKPEDTAVYYCAVSRGDDPEFDYWGQGTQVTVSS", "polyreactivity (PSR sort gate)": "low polyreactivity"},
      {"sequence": "QVQLVESGGGLVQAGGSLRLSCAASGFIFYGNAMAWSRQAPGKEREFVAAINGRGVSTYYADSVKGRFTISRDNAKNSDYLQMNSLKPEDTAVYYCNKVYWGRGPLEYWGQGTQVTVSS", "polyreactivity (PSR sort gate)": "high polyreactivity"},
      {"sequence": "QVQLVESGGGLVQAGGSLRLSCAASGFIFYGNTMGWYRQAPGKERELVAAISGSTGGTYYADSVKGRFTISRDNAKNTVYLQMNSLKPEDTAVYYCAAVVPWYASYSRYYYWGQGTQVTVSS", "polyreactivity (PSR sort gate)": "high polyreactivity"},
      {"sequence": "QVQLVESGGGLVQAGGSLRLSCAASGFIFYGNTMGWYRQAPGKERELVAAISWSGGTTYYADSVKGRFTISRDNAKNTVYLQMNSLKPEDTAVYYCNRAAFRYRYDYWGQGTQVTVSS", "polyreactivity (PSR sort gate)": "high polyreactivity"},
      {"sequence": "QVQLVESGGGLVQAGGSLRLSCAASGFIFYHYAMGWYRQAPGKERELVAAISWSGGSTYYADSVKGRFTISRDNAKNTVYLQMNSLKPEDTAVYYCAAANTNRFPYGYWGQGTQVTVSS", "polyreactivity (PSR sort gate)": "high polyreactivity"},
      {"sequence": "QVQLVESGGGLVQAGGSLRLSCAASGFIFYINAMVWYRQAPGKERELVAAITNVGSTNYADSVKGRFTISRDNAKNTVYLQMNSLKPEDTAVYYCAAEKGLVALVYKYDYWGQGTQVTVSS", "polyreactivity (PSR sort gate)": "low polyreactivity"},
      {"sequence": "QVQLVESGGGLVQAGGSLRLSCAASGFIFYKNAKGWYRQAPGKERELVAAISQIGGTTYYADSVKGRFTISRDNAKNTVYVQMNSLKPEDTAVYYCAASRRVQSDYWGQGTQVTVSS", "polyreactivity (PSR sort gate)": "high polyreactivity"},
      {"sequence": "QVQLVESGGGLVQAGGSLRLSCAASGFIFYKYAKGWYRQAPGKEREFVAAITWSGGNTYYADSVKGRFTISRDNAKNTVYLQMNSLKPEDTAVYYCAARDSKWGQGTQVTVSS", "polyreactivity (PSR sort gate)": "low polyreactivity"},
      {"sequence": "QVQLVESGGGLVQAGGSLRLSCAASGFIFYLNVMGWYRQAPGKERELVATITSGGSTNYADSVKGRFTISRDNAKNTVYLQMNSLKPEDTAVYYCAARRGKSYYWYNYWGQGTQVTVSS", "polyreactivity (PSR sort gate)": "high polyreactivity"},
      {"sequence": "QVQLVESGGGLVQAGGSLRLSCAASGFIFYQYAMGWYRQAPGKERELVAAISKSGGNTYYADSVKGRFTISRDNAKNTVYLQMNSLKPEDTAVYYCAADRGQRGMYYWGQGSQVTVSS", "polyreactivity (PSR sort gate)": "high polyreactivity"},
      {"sequence": "QVQLVESGGGLVQAGGSLRLSCAASGFIFYQYAMGWYRQAPGKERELVATISFRGGRTYYADSVKGRFTISRDNAKNTVYLQMNSLKPEDTAVYYCNAKRVSSRFYKWDYYWGQGTQVTVSS", "polyreactivity (PSR sort gate)": "high polyreactivity"},
      {"sequence": "QVQLVESGGGLVQAGGSLRLSCAASGFIFYQYAMGWYRQAPGKERELVAVISRTGSTSYADSVKGRFTISRDNAKNTVYLQMNSLKPEDTAVYYCAARYYFYDYWGQGSQVTVSS", "polyreactivity (PSR sort gate)": "high polyreactivity"},
      {"sequence": "QVQLVESGGGLVQAGGSLRLSCAASGFIFYRNAMGWYRPAPGKERELVAAINRGGSTYYADSVKGRFTISRDNAKNTVYLQMNSLKPEDTAVYYCAAYHLRPSRYDYWGQGTQVTVSS", "polyreactivity (PSR sort gate)": "high polyreactivity"},
      {"sequence": "QVQLVESGGGLVQAGGSLRLSCAASGFIFYRNTMGWYRQAPGKERELVAAISVSGGSTNYADSVKGRFTISRDNAKNTVYLQMNSLKPEDTAVYYCAARVRDSLVYGGWDDYWGQGTQVTVSS", "polyreactivity (PSR sort gate)": "high polyreactivity"},
      {"sequence": "QVQLVESGGGLVQAGGSLRLSCAASGFIFYRYALGWYRQAPGKERELVAAISRSGGSTYYADSVKVRFTISRDNAKNTVYLQMNSLKPEDTAVYYCAVTGYWYYHDHYSYPSRYYYWGQGTQVTVSS", "polyreactivity (PSR sort gate)": "high polyreactivity"},
      {"sequence": "QVQLVESGGGLVQAGGSLRLSCAASGFIFYRYAMGWYRQAPGKERELVAAISGSGGRTYYADSVKGRFTISRDNAKNTVYLQMNSLKPEDTAVYYCAADKQAYVTDDYWGKGTQVTVSS", "polyreactivity (PSR sort gate)": "high polyreactivity"}
    ]}
  ]
}
